Here are results for three molecules from patent USRE49495E1, “Binding polypeptides having a mutated scaffold” (Affibody AB, priority 2013, dated 2023).

What is called Kd is a measure of binding affinity in units of concentration. One may read the koff as the first-order rate constant of dissociation. The low end stands for a long-lived complex, the high end for a short-lived complex. Usually kon stands for the second-order rate constant of association. A low value points to slow association.

The target of assay [1] is T1, human PDGF-Rβ (R&D Systems, cat. no. 385-PR-100/CF) (human, UniProt P09619 33-530, limits assumed).
T1 construct: Bought; also called platelet-derived growth factor receptor beta
T1 sequence (P09619 33-530 limits assumed): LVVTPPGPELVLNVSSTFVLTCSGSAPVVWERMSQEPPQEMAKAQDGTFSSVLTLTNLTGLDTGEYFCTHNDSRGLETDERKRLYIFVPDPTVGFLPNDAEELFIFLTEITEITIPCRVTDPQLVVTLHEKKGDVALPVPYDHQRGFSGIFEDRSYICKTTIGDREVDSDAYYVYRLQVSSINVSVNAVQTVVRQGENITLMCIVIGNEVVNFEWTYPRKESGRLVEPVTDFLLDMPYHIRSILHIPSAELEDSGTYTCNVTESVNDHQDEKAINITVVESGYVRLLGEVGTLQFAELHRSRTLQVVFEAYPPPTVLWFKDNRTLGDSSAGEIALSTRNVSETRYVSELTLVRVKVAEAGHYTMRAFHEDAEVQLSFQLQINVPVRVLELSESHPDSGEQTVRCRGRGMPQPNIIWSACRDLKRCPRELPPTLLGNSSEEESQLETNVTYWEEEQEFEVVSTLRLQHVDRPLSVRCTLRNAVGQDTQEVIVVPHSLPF
The assay can be described thus: SPR Biacore 2000, PDGF-Rβ on CM5 chip, 1:1 binding with mass transfer; sample (0) before stability test. In general terms: SPR reads the build-up and loss of mass on a sensor chip optically.

The target in assay [2] is T1, human PDGF-Rβ (R&D Systems, cat. no. …). The assay can be described thus: SPR Biacore 2000, PDGF-Rβ on CM5 chip, 1:1 binding with mass transfer; sample (2w) after 2 weeks at 37 C; reference Z15805 (2w).
The target is the same in assay [3]. The assay can be described thus: SPR Biacore 2000, PDGF-Rβ on CM5 chip, 1:1 binding with mass transfer; KD after 2 weeks at 37 C against KD before.
Assay [4] shares this target. As to the kind of experiment: SPR Biacore 2000, PDGF-Rβ on CM5 chip, 1:1 binding with mass transfer; sample (0) before stability test; reference Z15805 (0).
For assay [5] the target is unchanged. As to the kind of experiment: SPR Biacore 2000, PDGF-Rβ on CM5 chip, 1:1 binding with mass transfer; sample (2w) after 2 weeks at 37 C.
The target in assay [6] is T2, human HER2-Fc (R&D Systems, cat. no. 1129-ER-050) (human, UniProt P04626 23-652).
T2 construct: Bought; also called human epidermal growth factor receptor 2; not shown: Fc part of the bought fusion protein
The assay can be described thus: SPR Biacore 2000, HER2-Fc on CM5 chip, 1:1 Langmuir; sample (2w) after 2 weeks at 37 C.

Assay [7] has as its target T2, human HER2-Fc (R&D Systems, cat. no. …). As to the kind of experiment: SPR Biacore 2000, HER2-Fc on CM5 chip, 1:1 Langmuir; sample (0) before stability test; reference Z02891 (0).
Assay [8] has the same target. The assay can be described thus: SPR Biacore 2000, HER2-Fc on CM5 chip, 1:1 Langmuir; sample (0) before stability test.
For assay [9] the target is unchanged. As to the kind of experiment: SPR Biacore 2000, HER2-Fc on CM5 chip, 1:1 Langmuir; sample (2w) after 2 weeks at 37 C; reference Z02891 (2w).
The target is the same in assay [10]. As to the kind of experiment: SPR Biacore 2000, HER2-Fc on CM5 chip, 1:1 Langmuir; KD after 2 weeks at 37 C against KD before.
Assay [11] addresses T3, human C5 (Quidel, cat. no. A403) (human, UniProt P01031 19-673; P01031 678-1676, limits assumed).
T3 construct: Bought protein; also called hC5; human complement component 5
As to the kind of experiment: BLI (ForteBio), compound captured on HSA sensor, human C5 0.79-25 nM, 1:1 model. (In general: In BLI a coated tip is dipped into the sample, and binding shifts an interference pattern.)

B1: Z17344 (designed binder)
chain: MGSSHHHHHHLQAEAKYAKELIEAAAEIDALPNLTRRQWNAFIKKLVRQPEQSSELLSEAKKLSESQAPK
In [1], B1 had a Kd of 1.2 nM, a koff of 0.0616 s⁻¹ and a kon of 5.15e+07 M⁻¹ s⁻¹. Further, in assay [2], the KDInv/KDOrig came to 3.88 ratio. Besides, the “KD(2w)/KD(0)” value in assay [3] was determined as 0.93 ratio. This molecule also returned a KDInv/KDOrig in assay [4] of 6.19 ratio. In assay [5], this molecule had a dissociation constant Kd of 1.1 nM, a koff of 0.0623 s⁻¹ and a kon of 5.62e+07 M⁻¹ s⁻¹.

B2: Z17342 (designed binder)
chain: MGSSHHHHHHLQAEAKYAKEMRNAYWEIALLPNLTNQQKRAFIRKLYRQPEQSSELLSEAKKLSESQAPK
As to B2, in [6], the affinity, expressed as Kd, was 2.3 nM; the koff stood at 0.0015 s⁻¹; the kon was 649000 M⁻¹ s⁻¹. In [7], this molecule registered a KDInv/KDOrig of 33 ratio. Moreover, in assay [8], the Kd was determined as 1.8 nM, the koff came out at 0.00157 s⁻¹ and the kon was determined as 894000 M⁻¹ s⁻¹. In [9], the KDInv/KDOrig worked out at 37 ratio. For the same molecule, the “KD(2w)/KD(0)” value in assay [10] came to 1.31 ratio.

B3: PSI0383 (designed binder)
chain: AEAKYAKEVLEAWDEIDRLPNLTIEQWLAFINKLDRQPEQSSELLSEAKKLSESQAPKVEGSLAEAKEAANAELDSYGVSDFYKRLIDKAKTVEGVEALKDAILAALP
notes: positions 52-53 changed from ND to SE against PSI0242
As to B3, the “Rel. KD” value in assay [11] was 2.1 ratio to PSI0242.
